Laboratory results from US9664676B2, “RNA sequences that induce fluorescence of small molecule fluorophores” (Cornell University, priority 2013, dated 2017).
*1 amine or outer side, *2 acyl side, *3 side chain or, on linkers, in order; H or OH if unused. Where a SMILES comes first, the peptide text is derived from it. Bridges are numbered along the chain shown (N, C = ends). Roman numbers before positions name the chains, in order. [ ]: non-standard residue; d: D form. Actinocin(9to1) = Cc1c2oc3c(C)ccc(C(=O)[*:1])c3nc-2c(C(=O)[*:2])c(N)c1=O; NMeV = CN[C@H](C(=O)O)C(C)C; Sar = CNCC(=O)O

Legend:
[1] = tested on: COS-7 cells; test: Analysis of DFHBI cell permeability; assay type: in vitro ADME; settings: mammalian cells, 20 μM DFHBI
Procedure: Analysis of DFHBI Cell Permeability: COS-7 cells were transfected with pCDNA-60CGG-Spinach2. 24 h after transfection, cells were imaged in medium supplemented with 25 mM HEPES, 5 mM MgSO4, 1 μg/ml Hoechst 33342 and 20 μM DFHBI. Images were acquired for Hoechst and Spinach2 signals every 5 min for 1 h for 20 cells. All signals were first normalized to area and then normalized to the highest signal for a given nucleus to determine the time for maximal signal to be reached.

[2] = tested on: COS-7 cells; test: Live cell imaging of (CGG)60-Spinach / (CGG)60-Spinach2 in COS-7 cells; assay type: cell-based; settings: at 8 h, 1 μg/ml
Procedure: Transfection of COS-7 Cells and Live Cell Imaging: COS-7 cells (ATCC-CRL-1651) were cultured and passaged in DMEM supplemented with 50 units of penicillin and 50 μg of streptomycin per milliliter. […] Cells were imaged in CO2-independent medium (Invitrogen) supplemented with L-glutamine. At 30 min-1 h before imaging, medium was supplemented with 25 mM HEPES, 5 mM MgSO4, 1 μg/ml Hoechst 33342 (when appropriate) and 20 μM DFHBI or vehicle. […] Spinach was imaged with a filter cube typically used for fluorescein or EGFP, with a sputter-coated excitation filter 470/40 nm, dichroic mirror 495 nm (long-pass), and emission filter 525/50 (Chroma Technology). DsRed-Max and mCherry were imaged using a filter cube typically used for Texas Red, with a sputter coated excitation filter 560/40 nm and emission filter 630/75 nm (Chroma Technology). Background intensity was subtracted from all pixel intensity measurements. Image analyses were completed with NIS-Elements AR 3.2 (Nikon). Drug treatments were carried out as specified. […] DMSO was added to a final concentration of 0.1% for vehicle treatments. […] After 2 h, the transfection medium was replaced with imaging medium containing DFHBI.

[3] = tested on: E. coli; test: Fluorescence measurements of E. coli (colonies, suspensions) expressing aptamers with DFHBI-1T; assay type: cell-based, Escherichia coli; settings: tRNA fusions, suspension/plate reader, DFHBI-1T
Procedure: Fluorescence Measurements of E. coli: Fluorescence measurements of E. coli were done in two general ways. To assess fluorescence brightness of bacterial colonies on a plate Acella or LMG194 strains cells were transferred to a new LB/agar dish with respective antibiotic and allowed to grow overnight at 37° C. Typically four to six colonies for the same aptamer were grown on the same plate to provide statistical data. These plates already contained 40 μM DFHBI-1T (or DFHBI) and 0.2% arabinose (in case of LMG194 strain). When Acella strain was used, 1 mM IPTG was added the next morning and incubation was continued for four to six hours more at 37° C. Bacterial colonies were then imaged under ChemiDoc MP imager as described above and images were processed in ImageJ program.
To measure fluorescence of bacterial cell suspensions BL21 Star (DE3) (Life Technologies) strain and pET28c-based expression plasmids were used. This combination provided the strongest signal. Fresh colony was inoculated into LB media with kanamycin and allowed to grow overnight at 37° C. to OD600 0.4. The cells were then induced with addition of 1 mM IPTG for 2-4 h at 37° C. After induction, cells were normalized for cell density and incubated with 400 μM DFHBI-1T. Cells were then measured for total fluorescence using a Genios Pro plate reader at 465 nm excitation and 535 nm emission. All values were normalized for slightly different excitation and emission spectra of Spinach2 and Broccoli.

[4] = In-gel imaging of tBroccoli and tdBroccoli (DFHBI-1T / SYBR Gold staining); assay type: biochemical; settings: in vitro transcribed tBroccoli and tdBroccoli in PAGE gel
Procedure: In-Gel Imaging of Spinach-Containing RNAs: Total bacterial RNA was purified using Trizol LS reagent (Life Technologies) following the manufacturer's protocol. Typically, 200-500 ng of total RNA or 50-100 ng of in vitro transcribed RNA was loaded into a well of precast 6% TBE-Urea Gel (Life Technologies) and ran at 270-300 V in 1×TBE buffer. RiboRuler Low Range RNA Ladder (Thermo Scientific) was used as band size standard.
After the gel was run to completion, the gel was washed 3×5 min with water and then stained for 30 min in 10 μM DFHBI or DFHBI-1T in buffer containing 40 mM HEPES pH 7.4, 100 mM KCl, 1 mM MgCl2. Then gel was imaged using a ChemiDoc MP with 470/30 nm excitation and 532/28 nm emission. Next, to see all the RNA in the sample, the gel was again washed 3×5 min with water followed by staining for 30 min with SYBR Gold (or Green) dye (Life Technologies) diluted 1/10000 in TBE buffer. Then gel was imaged under the same instrument using preset SYBR Gold (or Green) channel (302 nm excitation and 590/110 nm emission). Gel bands intensities were quantified in Image Lab 5.0 software (Bio-Rad). The bacterial 5S rRNA band was used for loading normalization.

[5] = tested on: HEK293T cells; test: Flow cytometry of HEK293T cells expressing 5S rRNA-aptamer fusions with DFHBI-1T; assay type: cell-based; settings: flow cytometry
Procedure: FIG. 24 illustrates the quantification of the flow cytometry analysis of aptamers expression in mammalian cells. To compare specific aptamers' brightness in mammalian cells, HEK293T cells were transfected with two plasmids: one expressing aptamer (with or without tRNA) fused to 5S rRNA and another expressing mCherry fluorescent protein. Cells were then treated with 40 μM DFHBI-1T and analyzed on FACSAria III instrument in two channels: green (ex=488 nm; em=525±50 nm) and red (ex=561 nm and em=610±20). For quantification, mean fluorescent signal of the non-negative population was calculated and then mean fluorescent signal of the negative population was subtracted from it to assess specific, not background fluorescent signal. Finally, this number was multiplied by the percentage of the non-negative population to provide the total fluorescent signal of the non-negative population. These numbers are plotted on the bar graph above. Where indicated, cells were also pre-treated with 5 mM MgSO4. Error bar indicates robust SD calculated by FlowJo program, used for data analysis.
Imaging 5S-tBroccoli and 5S-t-tdBroccoli: Plasmids were transfected into HEK293T cell using FuGENE HD reagent (Promega) following manufacture's protocol. Cell imaging was carried out as previously described for 5S-Spinach (Paige et al., “RNA Mimics of Green Fluorescent Protein,” Science 333(6042): 642-6 (2011), which is hereby incorporated by reference in its entirety) with DFHBI-1T instead of DFHBI. […]
Flow cytometry was used to quantify average brightness of tRNA. Transfected cells were analyzed in two channels: green (ex=488 nm; em=525±50 nm) and red (ex=561 nm; em=610±20). […] As evidenced from FIG. 14A, 5S-tBroccoli and 5S-tdBroccoli are clearly detectable in the green fluorescence channel and this specific signal appears only upon cells treatment with DFHBI-1T (FIG. 23).

[6] = Folding measurements with DFHBI-1T; assay type: physicochemical; settings: in vitro folding assay
Procedure: Briefly, fluorescence intensity of two solutions were compared: the one having excess of the dye and limiting amount of RNA and the other with excess of RNA and limiting amount of the dye. 1 μM of 1T (or RNA) and 20 μM of RNA (or 1T) was used. Signal from the first condition (limiting RNA) was divided by the signal from the second condition (limiting dye) to determine the fraction folded. To measure folding in a context of different flanking sequences RNA was generated from separate dsDNA fragments. These fragments were PCR amplified to have β-actin, 5S rRNA and 7SK RNA sequences on either or both sides of Broccoli. The folding assay then proceeded as described above.
(§1) To measure the fluorescence of aptamer-fluorophore complexes, an approach that overcomes potential confounding effects of incomplete RNA folding was used. The fluorescence of RNA-fluorophore complexes can be measured in either of two ways: using “excess RNA” or “excess fluorophore” (Ponchon et al., “Recombinant RNA Technology: the tRNA Scaffold,” Nat. Methods 4(7): 571-6 (2007), which is hereby incorporated by reference in its entirety). In an “excess RNA” experiment enough RNA was added to ensure that all the fluorophore (e.g. 1 μM) is bound to the RNA even if a sizeable portion of the RNA is unfolded. As a result, one can be confident that a 1 μM RNA-fluorophore complex is present, and one can therefore calculate the “molar brightness,” the fluorescence of a specific concentration of RNA-fluorophore complex independent of RNA folding. In the case of excess fluorophore experimental conditions were reversed and 1 μM of RNA was used with a vast excess of the fluorophore. In this case, the amount of RNA-fluorophore complex is highly dependent on the amount of RNA that is folded.

[7] = In vitro fluorescence activation of DFHBI-1T by 29-1 and truncation mutants; assay type: biochemical; settings: bound to DFHBI-1T
Text: (§2) In Vitro Characterization of Aptamers: dsDNA from the brightest bacterial cells in a library was PCR amplified from eluted plasmids. Truncation, deletion and point mutation mutants were generated from dsDNAs PCR amplified based on respective ssDNA templates (Protein and Nucleic Acid Facility, Stanford University Medical Center). Primers were designed so the PCR product contained T7 promoter sequence. When indicated, dsDNA or ssDNA also contained tRNA scaffold part. PCR products were then purified with PCR purification columns (Qiagen) and in vitro transcribed utilizing AmpliScribe T7-Flash Transcription Kit (Epicenter). RNA was purified using Bio-Spin columns (Bio-Rad), and quantified using both absorbance values and the Quant-iT RiboGreen RNA Assay Kit (Life Technologies).
All in vitro RNA properties were measured in 40 mM HEPES pH 7.4, 100 mM KCl, 1 mM MgCl2 buffer unless specified separately. All values presented are averaging of at least three independent experiments, error bars are standard deviations.
as §1

[8] = In vitro fluorescence activation of DFHBI by 29-1; assay type: biochemical; settings: bound to DFHBI
Text: as §2
All in vitro RNA properties were measured in 40 mM HEPES pH 7.4, 100 mM KCl, 1 mM MgCl2 buffer unless specified separately. […]
To measure the fluorescence of aptamer-fluorophore complexes, an approach that overcomes potential confounding effects of incomplete RNA folding was used. The fluorescence of RNA-fluorophore complexes can be measured in either of two ways: using “excess RNA” or “excess fluorophore” (Ponchon et al., “Recombinant RNA Technology: the tRNA Scaffold,” Nat. Methods 4(7): 571-6 (2007), which is hereby incorporated by reference in its entirety). […]

[9] = Fluorescence of aptamers bound to DFHO; assay type: biochemical
Procedure: To explore this phenomenon further, a library containing over 10 million mutants of this sequence was prepared. Each of the sequences was individually expressed in E. coli bacteria. The bacteria was incubated with the fluorophore DFHO and then sorted based on their fluorescent signal on a fluorescence-activated cell sorting (FACS) instrument. Analysis of the mutations introduced into the 29-1 aptamer allowed prediction of the core sequence necessary for binding DFHO. The possibility that the core binding sequence for DFHO fluorophore is the same as for the DFHBI fluorophore was also considered. The core binding sequence for DFHBI fluorophore is identified in preceding Example 21.

## CC1=NC(=Cc2cc(F)c(O)c(F)c2)C(=O)N1C [DFHBI, 4-(3,5-difluoro-4-hydroxybenzylidene)-1,2-dimethyl-imidazol-5-one]
[1]
  time to maximal fluorescence (ability to enter cells): ~30 min

## Cc1c2oc3c(C)ccc(C(=O)N[C@@H]4C(=O)N[C@H](C(C)C)C(=O)N5CCC[C@H]5C(=O)N(C)CC(=O)N(C)[C@@H](C(C)C)C(=O)O[C@@H]4C)c3nc-2c(C(=O)N[C@@H]2C(=O)N[C@H](C(C)C)C(=O)N3CCC[C@H]3C(=O)N(C)CC(=O)N(C)[C@@H](C(C)C)C(=O)O[C@@H]2C)c(N)c1=O [actinomycin D] (I: T[dV]P[Sar][NMeV] / II: T[dV]P[Sar][NMeV]; ester I:1-I:C, II:1-II:C; linker I:N-II:N via Actinocin(9to1))
[2]
  cytotoxicity in COS-7 cells: cytotoxicity was observed

B1: dBroccoli: dimeric Broccoli, SEQ ID NO: 12 (nucleic acid)
chain: GAGACGGUCGGGUCCAUCUGAGACGGUCGGGUCCAGAUAUUCGUAUCUGUCGAGUAGAGUGUGGGCUCAGAUGUCGAGUAGAGUGUGGGCUC
modifications: listed as RNA, chemistry not fully specified
[3]
  fluorescence of aptamer-expressing E. coli cells: approximately twice as fluorescent as cells expressing Broccoli
[4]
  fluorescence compared to monomeric Broccoli: almost twice the fluorescence as the monomeric Broccoli
[5]
  detection in HEK293T cells of 5S fusions without tRNA scaffold: can be detected in cells

B2: 29-1: 99-nucleotide RNA aptamer from SELEX-FACS, SEQ ID NO: 3 (nucleic acid)
chain: GGAGACGCAACUGAAUGAAAUGGUGAAGGAGACGGUCGGGUCCAGGCACAAAAAUGUUGCCUGUUGAGUAGAGUGUGGGCUCCGUAACUAGUCGCGUCAC
modifications: listed as RNA, chemistry not fully specified
[6]
  percent folded: 81%
[7]
  emission (em): 507 nm
  excitation (ex): 472 nm
[8]
  emission (em): 501 nm
  excitation (ex): 450 nm
[9]
  effect on DFHO fluorescence: significantly enhancing its fluorescence
